Reference: patent US20170334979A1 (published 2017)

B1: 7A (protein)
chain: EVQLVESGGGLVQPGNSLRLSCAASGFTFSKFGMSWVRQAPGKGLEWVSSISGSGADTLYADSLKGRFTISRDNAKTTLYLQMNSLRPEDTAVYYCTIGGSLSKSSQGTLVTVSS
B2: cynomolgus monkey serum albumin (other)
chain: DTHKSEVAHRFKDLGEEHFKGLVLVAFSQYLQQCPFEEHVKLVNEVTEFAKTCVADESAENCDKSLHTLFGDKLCTVATLRETYGEMADCCAKQEPERNECFLQHKDDNPNLPPLVRPEVDVMCTAFHDNEATFLKKYLYEVARRHPYFYAPELLFFAARYKAAFAECCQAADKAACLLPKLDELRDEGKASSAKQRLKCASLQKFGDRAFKAWAVARLSQKFPKAEFAEVSKLVTDLTKVHTECCHGDLLECADDRADLAKYMCENQDSISSKLKECCDKPLLEKSHCLAEVENDEMPADLPSLAADYVESKDVCKNYAEAKDVFLGMFLYEYARRHPDYSVMLLLRLAKAYEATLEKCCAAADPHECYAKVFDEFQPLVEEPQNLVKQNCELFEQLGEYKFQNALLVRYTKKVPQVSTPTLVEVSRNLGKVGAKCCKLPEAKRMPCAEDYLSVVLNRLCVLHEKTPVSEKVTKCCTESLVNRRPCFSALELDEAYVPKAFNAETFTFHADMCTLSEKEKQVKKQTALVELVKHKPKATKEQLKGVMDNFAAFVEKCCKADDKEACFAEEGPKFVAASQAALA

Experiments:
Test in all cases: purified sdAb binding
mouse serum albumin = mouse serum albumin (mouse, UniProt P07724 25-608)
[1] = target: B2
human serum albumin = human serum albumin (human, UniProt P02768 25-609)
10GE = target: 10GE

Chain of mouse serum albumin (P07724 25-608): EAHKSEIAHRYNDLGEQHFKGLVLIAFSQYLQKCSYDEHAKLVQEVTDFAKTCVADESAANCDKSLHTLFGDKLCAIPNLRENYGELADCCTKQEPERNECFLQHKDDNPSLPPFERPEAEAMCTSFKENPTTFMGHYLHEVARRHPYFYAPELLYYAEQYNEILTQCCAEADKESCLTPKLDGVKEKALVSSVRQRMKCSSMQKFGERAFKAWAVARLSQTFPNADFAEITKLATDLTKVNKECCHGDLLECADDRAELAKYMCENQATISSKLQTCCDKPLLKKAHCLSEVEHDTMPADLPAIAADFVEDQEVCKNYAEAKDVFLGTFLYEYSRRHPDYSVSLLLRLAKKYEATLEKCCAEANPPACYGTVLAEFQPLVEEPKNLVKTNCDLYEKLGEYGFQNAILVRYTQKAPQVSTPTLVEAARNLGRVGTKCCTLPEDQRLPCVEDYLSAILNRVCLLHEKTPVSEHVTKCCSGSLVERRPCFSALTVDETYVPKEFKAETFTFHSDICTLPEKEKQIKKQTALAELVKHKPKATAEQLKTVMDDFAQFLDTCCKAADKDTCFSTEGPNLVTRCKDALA

Kd (mouse serum albumin) [nM]	Kd [1] [nM]	Kd (human serum albumin) [nM]	Kd (10GE) [nM]	Binder
12.3	1.7	1.9	–	B1
–	–	–	1.6	B2
